Measured values as given in patent US20200055951A1 (DONG A UNIVERSITY RESEARCH FOUNDATION FOR INDUSTRY ACADEMY …, published 2020).

T1: pancreatic adenocarcinoma upregulated factor (PAUF) protein (UniProt Q96DA0 17-172, limits assumed)
T1 construct: no tag is mentioned there; also called Antigen PAUF
T1 sequence (looked up): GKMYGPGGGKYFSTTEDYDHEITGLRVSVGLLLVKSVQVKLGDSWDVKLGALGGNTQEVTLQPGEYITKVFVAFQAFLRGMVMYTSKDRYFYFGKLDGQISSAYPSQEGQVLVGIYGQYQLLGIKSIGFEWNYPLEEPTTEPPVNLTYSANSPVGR

T2: PAUF-His protein (UniProt Q96DA0 17-172, limits assumed)
T2 construct: not shown: His tag
T2 sequence (looked up): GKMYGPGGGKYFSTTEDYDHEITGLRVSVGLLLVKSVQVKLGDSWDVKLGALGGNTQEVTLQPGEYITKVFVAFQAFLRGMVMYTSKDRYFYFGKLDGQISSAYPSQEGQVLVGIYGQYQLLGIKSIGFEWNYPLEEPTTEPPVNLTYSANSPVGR


How the values were obtained:
[1] = biological target: T1, pancreatic adenocarcinoma upregulated …; assay: SPR, PAUF immobilized, antibody in flow at different concentrations
Experimental: Specifically, the antigen-antibody binding affinity was measured using the SPR method. Antigen PAUF was immobilized on the surface of a thin metal film and the antibody was diluted at different concentrations and allowed to pass through the metal surface. The antigen-antibody binding affinity was measured by measuring the time required for binding and dissociation between antigens and antibodies.

[2] = biological target: T2, PAUF-His protein; assay: indirect ELISA titration on PAUF-His, anti-human Fc-HRP; column head Kd (10^-9 M)
Experimental: Specifically, indirect ELISA was performed. An immuno-plate was coated with the PAUF-His protein and treated with each antibody at different concentrations, and the results were analyzed using the anti-human Fc-HRP capable of recognizing the constant region of human antibody as the secondary antibody. In particular, as the concentration of each antibody increases, the OD value increases.

[3] = biological target: T1, pancreatic adenocarcinoma upregulated …; assay: indirect ELISA, PAUF-coated plate, HRP-labeled anti-mouse antibody
Experimental: Specifically, the affinity of the antigen-antibody was tested using indirect ELISA. The PAUF-coated immuno-plate was treated with the four kinds of antibodies (2H2, 4E6, 11 G6, and 20C5) at different concentrations and the OD values were measured using the HRP-labeled anti-mouse antibody. In particular, as the OD value becomes higher, the affinity of the antibody for the PAUF becomes higher. Additionally, for the measurement of the nonspecific binding of an anti-PAUF mouse monoclonal antibody, which has a high affinity for PAUF, to other antigenic proteins, the immuno-plate was coated with PAUF and unspecified antigens so as to perform indirect ELISA.

| Binder | Kd [2] [nM] | EC50 (read off the curve) [3] [µg/mL] | also measured |
| --- | --- | --- | --- |
| hPMAb22 (anti-PAUF protein humanized antibody) (antibody, V domains shown, CDR-grafted humanized antibody with human constant regions; Expressed in HEK293 cells; also called 2H2-VH1/VL1; 2H2-VH1-VL1) VH: QVQLVQSGAEVKKPGASVKVSCKASGFNIKDYYMHWVRQAPGQGLEWMGWIDPENGNTNYAQKFQGRVTMTRDTSISTAYMELSRLRSDDTAVYYCARRAITTATAWFAYWGQGTLVTVSS VL: DIVMTQSPDSLAVSLGERATINCKSSQSLLNSRTRKNYLAWYQQKPGQPPKLLIYWASTRESGVPDRFSGSGSGTDFTLTISSLQAEDVAVYYCKQSYNLYTFGQGTKVEIK |  |  | Kd [1]: 0.194 nM |
| 20C5 (anti-PAUF protein mouse antibody) (antibody, V domains shown, Mouse monoclonal antibody) VH: QVQLKESGAELVRPGALVKLSCKASGFNIKDYYMHWVKQRPEQGLEWIGWIDPEHGNTIYDPKFQGKASLTADTSSNTAYLQLSSLTSEDTAVYYCARRGWLPAWFAYWGQGTLVTVSA VL: DIVMTQSPSSLAVSAGEKVTLSCKSSQSLLNSRTRKNYLAWYQQKPGQSPKLLIYWASTRESGVPDRFTGSGSGTDFTLTISSVQAEDLAVYYCKQSYNLYTFGGGTKLEIK |  | ~0.02 |  |
| 2H2 (anti-PAUF protein mouse antibody) (antibody, V domains shown, Mouse monoclonal antibody; also called 21-12 [sic]) VH: QVQLKQSGAELVRPGALVKLSCKASGFNIKDYYMHWVKQRPEQGLEWIGWIDPENGNTIYDPKFQGKASITADTSSNTAYLQLSSLTSEDTAVYYCARRAITTATAWFAYWGQGTLVTVSA VL: DIVMTQSPSSLAVSAGEKVTMSCKSSQSLLNSRTRKNYLAWYQQKPGQSPKLLIYWASTRESGVPDRFTGSGSGTDFTLTISSVQAEDLAVYYCKQSYNLYTFGAGTKLELK |  | ~0.05 |  |

Now from value to binder, other results behind:

| Kd [2] [nM] | EC50 (read off the curve) [3] [µg/mL] | Binder | also measured |
| --- | --- | --- | --- |
| 0.01 |  | cPMAb22 (chimeric antibody of 2H2) (antibody, V domains shown, Mouse variable regions of 2H2 on human heavy and light chain constant regions (kappa light chain implied by the anti-human kappa secondary antibody); Expressed in HEK293 cells) VH: QVQLKQSGAELVRPGALVKLSCKASGFNIKDYYMHWVKQRPEQGLEWIGWIDPENGNTIYDPKFQGKASITADTSSNTAYLQLSSLTSEDTAVYYCARRAITTATAWFAYWGQGTLVTVSA VL: DIVMTQSPSSLAVSAGEKVTMSCKSSQSLLNSRTRKNYLAWYQQKPGQSPKLLIYWASTRESGVPDRFTGSGSGTDFTLTISSVQAEDLAVYYCKQSYNLYTFGAGTKLELK |  |
| 0.03 |  | cPMAb205 (chimeric antibody of 20C5) (antibody, V domains shown, Mouse variable regions of 20C5 on human heavy and light chain constant regions (kappa light chain implied by the anti-human kappa secondary antibody); Expressed in HEK293 cells) VH: QVQLKESGAELVRPGALVKLSCKASGFNIKDYYMHWVKQRPEQGLEWIGWIDPEHGNTIYDPKFQGKASLTADTSSNTAYLQLSSLTSEDTAVYYCARRGWLPAWFAYWGQGTLVTVSA VL: DIVMTQSPSSLAVSAGEKVTLSCKSSQSLLNSRTRKNYLAWYQQKPGQSPKLLIYWASTRESGVPDRFTGSGSGTDFTLTISSVQAEDLAVYYCKQSYNLYTFGGGTKLEIK |  |
